The target of assay [1] is T1, monkey HER3 (Sino Biological, 90043-K08H) (cynomolgus monkey, UniProt G7PIG5 20-643).
T1 construct: Bought antigen; also called Cynomolgus monkeys
In words: BLI (Fortebio Octet Red96e), AHC sensors, HER3-MB3 and antigen each at 100 nM. Background: Biolayer interferometry detects binding as a change in optical thickness at a sensor tip.

The target in assay [2] is T2, mouse HER3 (Sino Biological, 51003-M08H) (mouse, UniProt Q61526 20-641).
T2 construct: Bought antigen; also called Mice
Described as above.

Assay [3] has as its target T3, human HER3 (Sino Biological, 10201-H08H) (human, UniProt P21860 20-643).
T3 construct: Bought antigen; also called ErbB3
Described as above.

For assay [4], the target named is T4, rat HER3 (Sino Biological, 80111-R08H) (rat, UniProt Q62799 20-641).
T4 construct: Bought antigen
Described as above.

Assay [5] addresses HER3 expressed on tumor cell lines (NUGC4, HCC1569, NCI-H508, SW620, HCC827 HER3OX) (UniProt P21860 20-1342, limits assumed). In words: cell-based or functional assay.

The results in this text go back to patent EP4785961A1 (Fortvita Biologics Inc., dated 2025).

T4 sequence (Q62799 20-641 limits assumed, stated change not applied): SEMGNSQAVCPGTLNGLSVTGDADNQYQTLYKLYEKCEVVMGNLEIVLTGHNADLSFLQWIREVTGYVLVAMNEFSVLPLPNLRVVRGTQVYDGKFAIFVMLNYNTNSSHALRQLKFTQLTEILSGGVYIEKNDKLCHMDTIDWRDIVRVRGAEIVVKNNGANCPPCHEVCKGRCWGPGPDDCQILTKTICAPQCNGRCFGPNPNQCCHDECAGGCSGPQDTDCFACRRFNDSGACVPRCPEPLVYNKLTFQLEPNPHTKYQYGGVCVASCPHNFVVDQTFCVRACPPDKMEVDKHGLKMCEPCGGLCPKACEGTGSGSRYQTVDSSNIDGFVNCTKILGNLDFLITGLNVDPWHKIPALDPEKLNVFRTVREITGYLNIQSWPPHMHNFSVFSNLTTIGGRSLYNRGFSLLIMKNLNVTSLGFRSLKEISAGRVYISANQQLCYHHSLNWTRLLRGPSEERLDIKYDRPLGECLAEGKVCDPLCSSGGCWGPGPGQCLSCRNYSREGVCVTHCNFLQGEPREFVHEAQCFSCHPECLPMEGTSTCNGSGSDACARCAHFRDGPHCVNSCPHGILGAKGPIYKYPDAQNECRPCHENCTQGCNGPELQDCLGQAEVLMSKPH
T1 sequence (G7PIG5 entry or part of it K08H K08H): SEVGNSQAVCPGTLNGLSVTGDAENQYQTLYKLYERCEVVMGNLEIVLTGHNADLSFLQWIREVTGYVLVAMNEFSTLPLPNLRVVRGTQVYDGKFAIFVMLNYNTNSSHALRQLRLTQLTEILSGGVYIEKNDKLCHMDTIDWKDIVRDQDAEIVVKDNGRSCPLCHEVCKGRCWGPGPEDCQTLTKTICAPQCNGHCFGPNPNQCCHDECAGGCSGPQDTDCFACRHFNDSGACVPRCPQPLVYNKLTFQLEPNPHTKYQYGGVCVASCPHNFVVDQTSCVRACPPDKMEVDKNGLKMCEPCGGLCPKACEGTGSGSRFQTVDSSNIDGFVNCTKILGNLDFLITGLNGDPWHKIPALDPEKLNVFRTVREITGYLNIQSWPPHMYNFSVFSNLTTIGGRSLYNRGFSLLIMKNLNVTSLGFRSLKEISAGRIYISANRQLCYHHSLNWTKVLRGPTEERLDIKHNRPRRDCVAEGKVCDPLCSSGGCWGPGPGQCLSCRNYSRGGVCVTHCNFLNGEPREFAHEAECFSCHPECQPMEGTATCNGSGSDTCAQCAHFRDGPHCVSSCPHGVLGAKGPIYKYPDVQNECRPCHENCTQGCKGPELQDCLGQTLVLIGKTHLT
T2 sequence (Q61526 20-641 limits assumed, stated change not applied): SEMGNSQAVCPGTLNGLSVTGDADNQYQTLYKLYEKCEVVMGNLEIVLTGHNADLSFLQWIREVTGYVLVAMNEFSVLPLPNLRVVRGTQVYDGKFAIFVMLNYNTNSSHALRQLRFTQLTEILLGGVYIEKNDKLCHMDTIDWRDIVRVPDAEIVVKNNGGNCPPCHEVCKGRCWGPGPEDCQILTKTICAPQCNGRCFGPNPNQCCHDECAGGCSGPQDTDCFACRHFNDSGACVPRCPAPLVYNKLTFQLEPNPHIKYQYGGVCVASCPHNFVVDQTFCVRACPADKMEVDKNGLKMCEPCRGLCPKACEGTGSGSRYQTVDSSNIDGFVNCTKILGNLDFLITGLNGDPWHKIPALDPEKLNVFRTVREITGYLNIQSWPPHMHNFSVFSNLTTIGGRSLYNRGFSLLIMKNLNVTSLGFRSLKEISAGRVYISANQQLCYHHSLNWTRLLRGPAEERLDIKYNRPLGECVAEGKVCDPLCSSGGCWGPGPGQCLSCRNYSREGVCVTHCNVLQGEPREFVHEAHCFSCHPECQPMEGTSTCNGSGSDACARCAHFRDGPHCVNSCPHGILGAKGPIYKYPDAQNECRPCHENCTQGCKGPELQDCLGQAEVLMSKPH

B1: HER3-MB3 (patritumab-MB3) antibody-drug conjugate (antibody, human IgG1, kappa, V domains shown)
VH: QVQLQQWGAGLLKPSETLSLTCAVYGGSFSGYYWSWIRQPPGKGLEWIGEINHSGSTNYNPSLKSRVTISVETSKNQFSLKLSSVTAADTAVYYCARDKWTWYFDLWGRGTLVTVSS
VL: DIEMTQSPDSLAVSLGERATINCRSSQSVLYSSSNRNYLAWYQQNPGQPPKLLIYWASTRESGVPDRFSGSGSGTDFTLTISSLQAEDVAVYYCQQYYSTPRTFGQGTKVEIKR
modifications: drug-linker MB3 (payload MB1) conjugated to cysteines after TCEP reduction; conjugated positions not given; drug-linker MB3 (payload MB1) conjugated to cysteines after TCEP reduction; n mainly 8, average DAR 7.56; conjugated positions not given
notes: Antibody-drug conjugate; also called HER3-ADC
Take B1: the Kd (usually the free concentration of one partner at which half of the binding sites on the other are occupied at equilibrium, for simple one-to-one binding) was 2.55 nM in assay [1], 45.8 nM in assay [2], 2.42 nM in assay [3] and 38.8 nM in assay [4]. The koff (usually the first-order rate constant of dissociation) came out at 0.000562 s⁻¹ in assay [1], 0.00989 s⁻¹ in assay [2], 0.000463 s⁻¹ in assay [3] and 0.00615 s⁻¹ in assay [4]. For the same molecule, the kon (usually the second-order rate constant of association) in assay [1] amounted to 221000 M⁻¹ s⁻¹; in assay [2], 216000 M⁻¹ s⁻¹; in assay [3] it was 191000 M⁻¹ s⁻¹; in assay [4], 158000 M⁻¹ s⁻¹. Moreover, in assay [5], the “IC50 of in vitro killing, HCC1569 tumor cell line (3D culture, 7 days, Cell-Titer)” value worked out at 0.07 nM. The “IC50 of in vitro killing, NUGC4 tumor cell line (3D culture, 7 days, Cell-Titer)” value in assay [5] came to 0.55 nM.
